The source of these data is patent US20050182242A1, “Global analysis of protein activities using proteome chips” (priority 2001, published 2005).

What all share (conditions): liposome binding signal on yeast proteome chip, Cy3-streptavidin detection
In data set [1] the test system is phosphatidylcholine (PC) liposomes. The data set is described as follows: Yeast proteome chip probed with PC liposomes. The text has this:
(§1) To identify PI-binding proteins in yeast, liposomes were used as probes because the liposome provides the most relevant physiological condition to assay the interactors. Six types of liposomes were used. Each contains phosphatidylcholine (“PC”) with 1% (w/w) N-(biotinoyl)-1,2-dihexadecanoyl-sn-glycero-3-phosphoethanolamine, triethylammonium salt (biotin DHPE). The biotinylated lipid serves as a label that can be detected by Cy3-streptavidin (21). In addition to PC, the five other liposomes contain either 5% (w/w) PI(3)P, PI(4)P, PI(3,4)P2, PI(4,5)P2, or PI(3,4,5)P3 (FIG. 3A).
(§2) The protein-liposome interaction was assayed as follows. Appropriate amounts of each lipid in chloroform were mixed and dried under nitrogen. The lipid mixture was resuspended in TBS buffer by vortexing. The liposomes were created by sonication. Blocked proteome chips were washed three to five times in PBS buffer, and the extra liquid on the glass surface was removed by tapping the slides vertically on a KIMWIPE™. 200 μl of liposome solution was added to the proteome chip and immediately covered by a hydrophobic plastic cover slip (GRACE BIO-LAB™, USA). After trapped air bubbles were removed, the chip was incubated in a humidity chamber at RT for one hour. To remove the cover slip, the chip was immersed into large volume of PBS buffer (50 ml), so that the slip would float away. The chip was then moved to a second PBS bath (>50 ml) and washed 3×5 min with shaking at RT. After removing extra liquid on the surface of the chip, about 100 μl of Cy3 or Cy5 conjugated streptavidin (PIERCE™, USA; 1:2000 to 1:4000 dilution) was added to the surface and covered by a hydrophobic plastic cover slip (GRACE BIO-LABS™, USA). The chip was incubated for greater than 30 min in the dark at RT. The chip was then washed as described above. To completely remove the liquid on the chip, the chip was spun to dryness at 1500-2000 rpm for 5-10 min at RT.
(§3) • 1. S. Fields, Y. Kohara, D. J. Lockhart, Proc. Natl. Acad. Sci. 96, 8825 (1999); A. Goffeau et al., Science 274, 563 (1996). • 2 P. Ross-Macdonald et al., Nature 402, 413 (1999); J. L., DeRisi, V. R. Iyer, P. O. Brown, Science 278, 680 (1997); E. A. Winzeler et al., Science 285, 901 (1999). P. Uetz et al., Nature 403, 623 (2000); T. Ito et al., Proc. Natl. Acad. Sci. USA. 97, 1143 (2000) • 3 H. Zhu, M. Snyder, Curr. Opin. Chem. Biol. 5, 40 (2001). • 4 M. R. Martzen et al., Science 286, 1153 (1999). • 5 H. Zhu et al., Nat. Genet. 26, 283 (2000). • 6 G. MacBeath, S. L. Schreiber, Science 289, 1760 (2000). • 7 A. Caveman, J. Cell Sci. 113, 3543 (2000). • 8 P. Arenkov et al., Anal. Biochem 278, 123 (2000). • 9 D. A. Mitchell, T. K. Marshall, R. J. Deschenes, Yeast 9, 715 (1993). The expression vector pEGH was created by inserting an RGS-HisX6 epitope tag between the GST gene and the polycloning site of pEG(KG). The yeast ORFs were cloned using the strategy described previously (5), except every step was done in a 96-well format. Plasmid DNAs confirmed by DNA sequencing were reintroduced into both yeast (Y258) and E. coli (DH5a). […] 0.1 mM calcium was present in buffers in all subsequent steps. The chip was washed three times with PBS at RT. Cy3-conjugated streptavidin (Jackson IR, USA) (1:5000 dilution) was added to the chip and incubated for 30 min at RT. After extensive washing, the chip was spun dry and scanned using a microarray scanner; the data was subsequently acquired with the GENEPIX™ array densitometry software (Axon, USA). • 12 S. S. Hook, A. R. Means, Annu. Rev. Pharmacol. Toxicol.41, 471 (2001). • 13 M. S. Cyert, R. Kunisawa, D. Kaim, J. Thorner, Proc. Natl. Acad. Sci. USA 88, 7376 (1991). • 14 D. A. Stirling, K. A. Welch, M. J. Stark, EMBO J. 13, 4329 (1994). • 15 F. Bohl, Kruse, EMBO J. 19, 5514 (2000); E. Bertrand et al., Mol. Cell 2, 437 (1998). • 16 D. C. Winter, E. Y. Choe, R. Li, Proc. Nat. Acad Sci. USA 96, 7288 (1999). • 17 C.

Another data set has as its system PI(3,4,5)P3 liposomes. The experiment in a line: Yeast proteome chip probed with PI(3,4,5)P3 liposomes.
From the text: as §1, §2, §3

The subject of a further data set is PI(3,4)P2 liposomes. The data set is described as follows: Yeast proteome chip probed with PI(3,4)P2 liposomes.
From the text: as §1, §2, §3

The test system of the next data set is PI(4,5)P2 liposomes. The experiment in a line: Yeast proteome chip probed with PI(4,5)P2 liposomes.
From the text: as §1, §2, §3

Another data set deals with PI(4)P liposomes. The data set is described as follows: Yeast proteome chip probed with PI(4)P liposomes.
From the text: as §1, §2, §3

B1: PKR1: yeast GST-HisX6 fusion protein on proteome chip (protein, UniProt Q03880 1-122, looked up)
V-type ATPase assembly factor …: MANFFVRLWESVFEPGTSPQLIIATHVSFVALLLTLIWLIYATNGNIHFYALFCISLLLWITVIWFINELSHVKLKDNDELDKDANKKDDSAIKEDSEDKQESGKSTSTARRTQAQSRSRKA
modifications: GST-His6 tag
notes: yeast GST-HisX6 fusion protein on proteome chip
Consider B1, for which, in data set [1], the PC is given as 61.63. In the data set on PI(3,4,5)P3 liposomes, the “PI(3, 4, 5)P3” value came out at 15.75. In the data set with PI(3,4)P2 liposomes, the “PI(3, 4)P2” value came out at 37.52. Further, the “PI(4, 5)P2” value with PI(4,5)P2 liposomes is reported as 87.75. The “PI(4)P” value with PI(4)P liposomes is recorded as 61.40.

B2: WRS1: yeast GST-HisX6 fusion protein on proteome chip (protein, UniProt Q12109 1-432, looked up)
Tryptophan--tRNA ligase, …: MSNDETVEKVTQQVSELKSTDVKEQVVTPWDVEGGVDEQGRAQNIDYDKLIKQFGTKPVNEETLKRFKQVTGREPHHFLRKGLFFSERDFTKILDLYEQGKPFFLYTGRGPSSDSMHLGHMIPFVFTKWLQEVFDVPLVIELTDDEKFLFKHKLTINDVKNFARENAKDIIAVGFDPKNTFIFSDLQYMGGAFYETVVRVSRQITGSTAKAVFGFNDSDCIGKFHFASIQIATAFPSSFPNVLGLPDKTPCLIPCAIDQDPYFRVCRDVADKLKYSKPALLHSRFFPALQGSTTKMSASDDTTAIFMTDTPKQIQKKINKYAFSGGQVSADLHRELGGNPDVDVAYQYLSFFKDDDVFLKECYDKYKSGELLSGEMKKLCIETLQEFVKAFQERRAQVDEETLDKFMVPHKLVWGEKERLVAPKPKTKQEKK
modifications: GST-HisX6 tag
notes: as for B1
Turning to B2, in data set [1], the PC amounted to 62.51. Moreover, the “PI(3, 4, 5)P3” value in the data set on PI(3,4,5)P3 liposomes is 51.08. Moreover, the “PI(3, 4)P2” value in the data set on PI(3,4)P2 liposomes turned out to be 63.10. In the data set on PI(4,5)P2 liposomes, the “PI(4, 5)P2” value worked out at 21.56. Further, in the data set with PI(4)P liposomes, the “PI(4)P” value is recorded as 4.57.

B3: SUN4: yeast GST-HisX6 fusion protein on proteome chip (protein, UniProt P53616 25-420, looked up)
Probable secreted …: YAADIDTGCTTTAHGSHQHKRAVAVTYVYETVTVDKNGQTVTPTSTEASSTVASTTTLISESSVTKSSSKVASSSESTEQIATTSSSAQTTLTSSETSTSESSVPISTSGSASTSSAASSATGSIYGDLADFSGPYEKFEDGTIPCGQFPSGQGVIPISWLDEGGWSGVENTDTSTGGSCKEGSYCSYACQPGMSKTQWPSDQPSDGRSIGGLLCKDGYLYRSNTDTDYLCEWGVDAAYVVSELSNDVAICRTDYPGTENMVIPTYVQAGDSLPLTVVDQDTYYTWQGLKTSAQYYVNNAGISVEDACVWGSSSSGVGNWAPLNFGAGSSDGVAYLSLIPNPNNGNALNFNVKIVAADDSSTVNGECIYENGSFSGGSDGCTVSVTAGKAKFVLYN
modifications: GST-His6 tag
notes: as for B1
The molecule B3 registered a PC in data set [1] of 69.55. The “PI(3, 4, 5)P3” value with PI(3,4,5)P3 liposomes is reported as 33.19. In addition, in the data set with PI(3,4)P2 liposomes, the “PI(3, 4)P2” value is listed as 20.88. Besides, the “PI(4, 5)P2” value in the data set on PI(4,5)P2 liposomes came out at 66.41. Also, the “PI(4)P” value with PI(4)P liposomes was determined as 60.75.

B4: DPS1: yeast GST-HisX6 fusion protein on proteome chip (protein, UniProt P04802 2-557, looked up)
Aspartate--tRNA ligase, …: SQDENIVKAVEESAEPAQVILGEDGKPLSKKALKKLQKEQEKQRKKEERALQLEAEREAREKKAAAEDTAKDNYGKLPLIQSRDSDRTGQKRVKFVDLDEAKDSDKEVLFRARVHNTRQQGATLAFLTLRQQASLIQGLVKANKEGTISKNMVKWAGSLNLESIVLVRGIVKKVDEPIKSATVQNLEIHITKIYTISETPEALPILLEDASRSEAEAEAAGLPVVNLDTRLDYRVIDLRTVTNQAIFRIQAGVCELFREYLATKKFTEVHTPKLLGAPSEGGSSVFEVTYFKGKAYLAQSPQFNKQQLIVADFERVYEIGPVFRAENSNTHRHMTEFTGLDMEMAFEEHYHEVLDTLSELFVFIFSELPKRFAHEIELVRKQYPVEEFKLPKDGKMVRLTYKEGIEMLRAAGKEIGDFEDLSTENEKFLGKLVRDKYDTDFYILDKFPLEIRPFYTMPDPANPKYSNSYDFFMRGEEILSGAQRIHDHALLQERMKAHGLSPEDPGLKDYCDGFSYGCPPHAGGGIGLERVVMFYLDLKNIRRASLFPRDPKRLRP
modifications: GST-His6 fusion tag
notes: as for B1
On to B4, for which the PC in data set [1] is on record as 62.22. The “PI(3, 4, 5)P3” value in the data set on PI(3,4,5)P3 liposomes is reported as 13.05. Besides, the “PI(3, 4)P2” value in the data set with PI(3,4)P2 liposomes came out at 25.12. In addition, the “PI(4, 5)P2” value with PI(4,5)P2 liposomes is 41.81. Moreover, the “PI(4)P” value in the data set with PI(4)P liposomes was found to be 99.29.

B5: SXM1: yeast GST-HisX6 fusion protein on proteome chip (protein, UniProt Q04175 1-944, looked up)
Importin beta SMX1: MVQEQAILSCIEQTMVADAKIIKEAEQQLFEFQKQPGFTSFLLNIVSDDNFALNVRLSSAIYLKNKIHRSWDTKREDGIKADEKLSIKERLIETLVKNCENNHIRPILTETINGILVGQEDWDLAPIIKNLLSSGDASYIYPGLLLLFQLCKAHRWDMVGSRDYIDSVIEELFPIVEGIASNIGSQTDYRSNEILYLILKSFKYACLNNLPQYFSQPERIMSWVQLHLYLCSKPLPVEVMELDPADRSLDKRVKVNKWGFGNLNRFLQRYNKITKAITKEFIDYIFNTIVPIILREFFKDIEAWGNNSLWLSDSSLYFLISFLEKCVTIDQLYPLIEPHLQIIFENVIFPCLCANEQSIELLEDDQEEYTRRYFDINREGSTPDAASADFIFLIGSKRPEKLNNILPFINDIFTRFDANSSDINMAFKEEGALRTLSNLFSFIDEPSVLENIFGHFIVPLLSQDKYMFLVARSLETIALYSEEFKDMNILSQLFELTYTNFLNSNVLPVQIEAADAIKCLIVSNPQIHPAVSAHVPGMMEKLLKLSKIFEIDILSEVMEALVERFSDELSPFAKDLASNLVEQFLRIAQALVENPSETYSASDQEQEIQASGLLQTMTTMVMSMNKVPLIESLAPVVKFVVLHAQISFITEAVDLLDALTISSHLLYNQIAPPIWELLHDILDSFQTYAMDYFEAYSIFFETIVMTGFPQDQTYVQPLLEILSAKLESEVDYDIEHVMQILMYFALSMRDIPLFSKAIKVSTNDELGLDSKCIVKLGLANLFAKPIETLQIMENEGFTINFFTNWFNEKFYSVFAIKLQVLVILTLLKMPEVPNSVSPLLNNLTNKLVELTLSLPKAIRNRDAVTEGKSLEGDLTPEEEEEYFIECDDDMKETVLDQINVFQEVHTFFKNLQNEDAGKYEKIINYLDESKRDSLQVILEFVSQH
modifications: GST-His6 tag
notes: as for B1
B5 yielded a PC in data set [1] of 51.95. Moreover, the “PI(3, 4, 5)P3” value in the data set with PI(3,4,5)P3 liposomes was found to be 23.40. Further, in the data set with PI(3,4)P2 liposomes, the “PI(3, 4)P2” value is 19.15. The “PI(4, 5)P2” value in the data set with PI(4,5)P2 liposomes was 27.22. The “PI(4)P” value with PI(4)P liposomes worked out at 30.48.
